# Test results taken from publication PMC3285272 (Cell, 2012).
# Residue numbers refer to the chain shown, from its start. Names and notes keep the numbering of the source.
# T1: full-length γζ-COP dimer (B. taurus, UniProt P53620 1-874; P35604 1-177)
# T1 sequence (looked up) 1: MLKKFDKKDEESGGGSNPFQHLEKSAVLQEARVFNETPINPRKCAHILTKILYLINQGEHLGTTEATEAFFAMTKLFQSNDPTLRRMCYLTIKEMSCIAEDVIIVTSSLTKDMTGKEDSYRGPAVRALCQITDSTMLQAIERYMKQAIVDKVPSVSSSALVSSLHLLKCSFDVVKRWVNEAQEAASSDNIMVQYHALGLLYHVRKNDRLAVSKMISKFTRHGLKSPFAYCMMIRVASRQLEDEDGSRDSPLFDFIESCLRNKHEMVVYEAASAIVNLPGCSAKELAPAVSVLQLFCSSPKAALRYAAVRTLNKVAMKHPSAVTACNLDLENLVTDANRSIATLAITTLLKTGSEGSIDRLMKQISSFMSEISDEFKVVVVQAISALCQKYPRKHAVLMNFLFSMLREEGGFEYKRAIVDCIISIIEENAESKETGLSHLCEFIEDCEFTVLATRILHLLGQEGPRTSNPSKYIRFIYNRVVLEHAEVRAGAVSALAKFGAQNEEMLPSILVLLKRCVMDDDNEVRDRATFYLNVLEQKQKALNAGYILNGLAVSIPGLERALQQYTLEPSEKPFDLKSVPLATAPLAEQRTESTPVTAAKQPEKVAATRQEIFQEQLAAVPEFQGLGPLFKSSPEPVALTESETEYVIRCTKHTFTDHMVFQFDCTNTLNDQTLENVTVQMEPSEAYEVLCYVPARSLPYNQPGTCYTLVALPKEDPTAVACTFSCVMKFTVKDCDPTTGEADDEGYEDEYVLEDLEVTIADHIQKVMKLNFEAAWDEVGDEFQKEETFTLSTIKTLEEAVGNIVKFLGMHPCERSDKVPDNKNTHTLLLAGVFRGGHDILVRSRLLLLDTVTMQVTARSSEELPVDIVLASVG
# T1 sequence (looked up) 2: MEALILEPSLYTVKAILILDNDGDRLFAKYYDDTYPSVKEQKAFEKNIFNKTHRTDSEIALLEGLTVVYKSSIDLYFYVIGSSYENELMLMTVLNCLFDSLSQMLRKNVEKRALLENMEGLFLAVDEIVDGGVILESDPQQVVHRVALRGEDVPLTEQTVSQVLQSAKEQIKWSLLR
# T2: γζ-COP core complex (bovine γ-COP 1–355 plus ζ-COP 1–153) (B. taurus, UniProt P53620 1-355; P35604 1-153)
# T2 sequence (looked up) 1: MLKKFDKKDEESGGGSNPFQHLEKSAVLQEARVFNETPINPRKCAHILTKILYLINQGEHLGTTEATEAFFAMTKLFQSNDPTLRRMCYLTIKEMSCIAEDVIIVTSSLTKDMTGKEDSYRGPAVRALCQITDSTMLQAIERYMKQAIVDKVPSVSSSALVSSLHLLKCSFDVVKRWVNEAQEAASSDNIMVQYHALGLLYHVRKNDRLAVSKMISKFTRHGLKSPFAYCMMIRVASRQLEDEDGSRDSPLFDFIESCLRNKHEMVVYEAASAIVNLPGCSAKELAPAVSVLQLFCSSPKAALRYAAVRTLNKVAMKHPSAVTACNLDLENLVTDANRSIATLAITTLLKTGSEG
# T2 sequence (looked up) 2: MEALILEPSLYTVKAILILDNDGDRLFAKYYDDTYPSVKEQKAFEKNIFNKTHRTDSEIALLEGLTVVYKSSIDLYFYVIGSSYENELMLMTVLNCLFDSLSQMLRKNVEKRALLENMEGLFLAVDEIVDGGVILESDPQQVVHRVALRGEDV
# B1: H. sapiens Arf1 (residues 18–181) (domain or fragment)
# chain: not shown
# B2: S. cerevisiae Arf1 (residues 18–181) I43E with a C-terminal GST tag (domain or fragment, UniProt P11076 18-181, looked up)
# chain: MRILMVGLDGAGKTTVLYKLKLGEVETTIPTIGFNVETVQYKNISFTVWDVGGQDRIRSLWRHYYRNTEGVIFVVDSNDRSRIGEAREVMQRMLNEDELRNAAWLVFANKQDLPEAMSAAEITEKLGLHSIRNRPWFIQATCATSGEGLYEGLEWLSNSLKNST
# B3: S. cerevisiae Arf1 (residues 18–181) complexed with GppNHp (domain or fragment, UniProt P11076 18-181, looked up)
# chain: B2 chain with E26I
# B4: full-length βδ-COP dimer (complex, R. norvegicus | B. taurus)
# chain 1: MTAAENVCYTLINVPMDSEPPSEISLKNDLEKGDVKSKTEALKKVIIMILNGEKLPGLLMTIIRFVLPLQDHTIKKLLLVFWEIVPKTTPDGRLLHEMILVCDAYRKDLQHPNEFIRGSTLRFLCKLKEAELLEPLMPAIRACLEHRHSYVRRNAVLAIYTIYRNFENLIPDAPELIHDFLVNEKDASCKRNAFMMLIHADQDRALDYLSTCIDQVQTFGDILQLVIVELIYKVCHANPSERARFIRCIYNLLQSSSPAVKYEAAGTLVTLSSAPTAIKAAAQCYIDLIIKESDNNVKLIVLDRLVELKEHPAHERVLQDLVMDILRVLSTPDLEVRKKTLQLALDLVSSRNVEELVIVLKKEVIKTNNVSEHEDTDKYRQLLVRTLHSCSVRFPDMAANVIPVLMEFLSDSNEAAAADVLEFVREAIQRFDNLRMLIVEKMLEVFHAIKSVKIYRGALWILGEYCSTKEDIQSVMTEVRRSLGEIPIVESEIKKEAGELKPEEEITVGPVQKLVTEMGTYATQSALSSSRPTKKEEDRPPLRGFLLDGDFFVAASLATTLTKIALRYVALVQEKKKQNSFVAEAMLLMATILHLGKSSLPKKPITDDDVDRISLCLKVLSECSPLMNDIFNKECRQSLSQMLSAKLEEEKLSQKKESEKRNVTVQPDDPISFMQLTAKNEMNCKEDQFQLSLLAAMGNTQRKEAADPLASKLNKVTQLTGFSDPVYAEAYVHVNQYDIVLDVLVVNQTSDTLQNCTLELATLGDLKLVEKPSPLTLAPHDFANIKANVKVASTENGIIFGNIVYDVSGAASDRNCVVLSDIHIDIMDYIQPATCTDAEFRQMWAEFEWENKVTVNTNVTDLNDYLQHILKSTNMKCLTPEKALSGYCGFMAANLYARSIFGEDALANVSIEKPVHQGPDAAVTGHIRIRAKSQGMALSLGDKINLSQKKTSL
# chain 2: MVLLAAAVCTKAGKAIVSRQFVEMTRTRIEGLLAAFPKLMNTGKQHTFVETESVRYVYQPMEKLYMVLITTKNSNILEDLETLRLFSRVIPEYCRALEENEISEHCFDLIFAFDEIVALGYRENVNLAQIRTFTEMDSHEEKVFRAVRETQEREAKAEMRRKAKELQQARRDAERQGKKAPGFGGFGSSTVSGGSTTSMITETIIETDKPKVAPAPARPSGPSKALKLGAKGKEVDNFVDKLKSEGENIISSNMGKRTSEATKVHAPPINMESVHMKIEEKITLTCGRDGGLQNMELHGMIMLRISDDKFGRIRLHVENEDKKGVQLQTHPNVDKKLFTAESLIGLKNPEKSFPVNSDVGVLKWRLQTTEESFIPLTINCWPSESGNGCDVNIEYELQEDNLELNDVVITIPLPSGVGAPVIGEIDGEYRHDSRRNTLEWCLPVIDAKNKSGSLEFSIAGQPNDFFPVQVSFISKKNYCNIQVTKVTQVDGNSPVRFSTETTFLVDKYEIL
# Tests used:
# [1] = biological target: full-length βδ/γζ-COP complex (R. norvegicus | B. taurus, UniProt P23514 1-953; P53619 1-511; P53620 1-874; P35604 1-177); assay: GTPase fluorescence assay
# [2] = biological target: T1, full-length γζ-COP dimer; assay: pull-down
# [3] = biological target: T2, γζ-COP core complex (bovine γ-COP 1–355 …); assay: crystal structure
# [4] = biological target: B2; assay: pull-down
binder,measurement,setting,value
B1,Kd,[1],~1000 nM
B2,binding result,[2],binds
B3,binding result,[3],binds
B4,percent binding capacity relative to wild-type Arf1,[4],90%
